T1: Bovine, dephosphorylated, Myelin Basic Protein (MBP), P02687
T1 chain: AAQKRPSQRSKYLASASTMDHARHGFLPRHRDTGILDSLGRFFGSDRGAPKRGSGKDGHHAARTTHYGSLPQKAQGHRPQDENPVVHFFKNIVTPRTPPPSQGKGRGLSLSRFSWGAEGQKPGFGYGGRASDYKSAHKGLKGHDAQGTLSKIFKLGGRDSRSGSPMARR

B1: GSK3A (protein)
chain: MSGGGPSGGGPGGSGRARTSSFAEPGGGGGGGGGGPGGSASGPGGTGGGKASVGAMGGGVGASSSGGGPGGSGGGGSGGPGAGTSFPPPGVKLGRDSGKVTTVVATLGQGPERSQEVAYTDIKVIGNGSFGVVYQARLAETRELVAIKKVLQDKRFKNRELQIMRKLDHCNIVRLRYFFYSSGEKKDELYLNLVLEYVPETVYRVARHFTKAKLTIPILYVKVYMYQLFRSLAYIHSQGVCHRDIKPQNLLVDPDTAVLKLCDFGSAKQLVRGEPNVSYICSRYYRAPELIFGATDYTSSIDVWSAGCVLAELLLGQPIFPGDSGVDQLVEIIKVLGTPTREQIREMNPNYTEFKFPQIKAHPWTKVFKSRTPPEAIALCSSLLEYTPSSRLSPLEACAHSFFDELRCLGTQLPNNRPLPPLFNFSAGELSIQPSLNAILIPPHLRSPAGTTTLTPSSQALTETPTSSDWQSTDATPTLTNSS
B2: EPHA4 (protein)
chain: SRRRSKYSKAKQEADEEKHLNQGVRTYVDPFTYEDPNQAVREFAKEIDASCIKIEKVIGVGEFGEVCSGRLKVPGKREICVAIKTLKAGYTDKQRRDFLSEASIMGQFDHPNIIHLEGVVTKCKPVMIITEYMENGSLDAFLRKNDGRFTVIQLVGMLRGIGSGMKYLSDMSYVHRDLAARNILVNSNLVCKVSDFGMSRVLEDDPEAAYTTRGGKIPIRWTAPEAIAYRKFTSASDVWSYGIVMWEVMSYGERPYWDMSNQDVIKAIEEGYRLPPPMDCPIALHQLMLDCWQKERSDRPKFGQIVNMLDKLIRNPNSLKRTGTESSRPNTALLDPSSPEFSAVVSVGDWLQAIKMDRYKDNFTAAGYTTLEAVVHVNQEDLARIGITAITHQNKILSSVQAMRTQMQQMHGRMVPV
B3: IRAK4 (protein)
chain: MNKPITPSTYVRCLNVGLIRKLSDFIDPQEGWKKLAVAIKKPSGDDRYNQFHIRRFEALLQTGKSPTSELLFDWGTTNCTVGDLVDLLIQNEFFAPASLLLPDAVPKTANTLPSKEAITVQQKQMPFCDKDRTLMTPVQNLEQSYMPPDSSSPENKSLEVSDTRFHSFSFYELKNVTNNFDERPISVGGNKMGEGGFGVVYKGYVNNTTVAVKKLAAMVDITTEELKQQFDQEIKVMAKCQHENLVELLGFSSDGDDLCLVYVYMPNGSLLDRLSCLDGTPPLSWHMRCKIAQGAANGINFLHENHHIHRDIKSANILLDEAFTAKISDFGLARASEKFAQTVMTSRIVGTTAYMAPEALRGEITPKSDIYSFGVVLLEIITGLPAVDEHREPQLLLDIKEEIEDEEKTIEDYIDKKMNDADSTSVEAMYSVASQCLHEKKNKRPDIKKVQQLLQEMTAS
B4: DYRK3 (protein)
chain: MGGTARGPGRKDAGPPGAGLPPQQRRLGDGVYDTFMMIDETKCPPCSNVLCNPSEPPPPRRLNMTTEQFTGDHTQHFLDGGEMKVEQLFQEFGNRKSNTIQSDGISDSEKCSPTVSQGKSSDCLNTVKSNSSSKAPKVVPLTPEQALKQYKHHLTAYEKLEIINYPEIYFVGPNAKKRHGVIGGPNNGGYDDADGAYIHVPRDHLAYRYEVLKIIGKGSFGQVARVYDHKLRQYVALKMVRNEKRFHRQAAEEIRILEHLKKQDKTGSMNVIHMLESFTFRNHVCMAFELLSIDLYELIKKNKFQGFSVQLVRKFAQSILQSLDALHKNKIIHCDLKPENILLKHHGRSSTKVIDFGSSCFEYQKLYTYIQSRFYRAPEIILGSRYSTPIDIWSFGCILAELLTGQPLFPGEDEGDQLACMMELLGMPPPKLLEQSKRAKYFINSKGIPRYCSVTTQADGRVVLVGGRSRRGKKRGPPGSKDWGTALKGCDDYLFIEFLKRCLHWDPSARLTPAQALRHPWISKSVPRPLTTIDKVSGKRVVNPASAFQGLGSKLPPVVGIANKLKANLMSETNGSIPLCSVLPKLIS
B5: EPHA5 (protein)
chain: SGSCCECGCGRASSLCAVAHPSLIWRCGYSKAKQDPEEEKMHFHNGHIKLPGVRTYIDPHTYEDPNQAVHEFAKEIEASCITIERVIGAGEFGEVCSGRLKLPGKRELPVAIKTLKVGYTEKQRRDFLGEASIMGQFDHPNIIHLEGVVTKSKPVMIVTEYMENGSLDTFLKKNDGQFTVIQLVGMLRGISAGMKYLSDMGYVHRDLAARNILINSNLVCKVSDFGLSRVLEDDPEAAYTTRGGKIPIRWTAPEAIAFRKFTSASDVWSYGIVMWEVVSYGERPYWEMTNQDVIKAVEEGYRLPSPMDCPAALYQLMLDCWQKERNSRPKFDEIVNMLDKLIRNPSSLKTLVNASCRVSNLLAEHSPLGSGAYRSVGEWLEAIKMGRYTEIFMENGYSSMDAVAQVTLEDLRRLGVTLVGHQKKIMNSLQEMKVQLVNGMVPL
B6: IKBKB (protein)
chain: MSWSPSLTTQTCGAWEMKERLGTGGFGNVIRWHNQETGEQIAIKQCRQELSPRNRERWCLEIQIMRRLTHPNVVAARDVPEGMQNLAPNDLPLLAMEYCQGGDLRKYLNQFENCCGLREGAILTLLSDIASALRYLHENRIIHRDLKPENIVLQQGEQRLIHKIIDLGYAKELDQGSLCTSFVGTLQYLAPELLEQQKYTVTVDYWSFGTLAFECITGFRPFLPNWQPVQWHSKVRQKSEVDIVVSEDLNGTVKFSSSLPYPNNLNSVLAERLEKWLQLMLMWHPRQRGTDPTYGPNGCFKALDDILNLKLVHILNMVTGTIHTYPVTEDESLQSLKARIQQDTGIPEEDQELLQEAGLALIPDKPATQCISDGKLNEGHTLDMDLVFLFDNSKITYETQISPRPQPESVSCILQEPKRNLAFFQLRKVWGQVWHSIQTLKEDCNRLQQGQRAAMMNLLRNNSCLSKMKNSMASMSQQLKAKLDFFKTSIQIDLEKYSEQTEFGITSDKLLLAWREMEQAVELCGRENEVKLLVERMMALQTDIVDLQRSPMGRKQGGTLDDLEEQARELYRRLREKPRDQRTEGDSQEMVRLLLQAIQSFEKKVRVIYTQLSKTVVCKQKALELLPKVEEVVSLMNEDEKTVVRLQEKRQKELWNLLKIACSKVRGPVSGSPDSMNASRLSQPGQLMSQPSTASNSLPEPAKKSEELVAEAHNLCTLLENAIQDTVREQDQSFTALDWSWLQTEEEEHSCLEQAS
B7: GRK7 (protein)
chain: MVDMGALDNLIANTAYLQARKPSDCDSKELQRRRRSLALPGLQGCAELRQKLSLNFHSLCEQQPIGRRLFRDFLATVPTFRKAATFLEDVQNWELAEEGPTKDSALQGLVATCASAPAPGNPQPFLSQAVATKCQAATTEEERVAAVTLAKAEAMAFLQEQPFKDFVTSAFYDKFLQWKLFEMQPVSDKYFTEFRVLGKGGFGEVCAVQVKNTGKMYACKKLDKKRLKKKGGEKMALLEKEILEKVSSPFIVSLAYAFESKTHLCLVMSLMNGGDLKFHIYNVGTRGLDMSRVIFYSAQIACGMLHLHELGIVYRDMKPENVLLDDLGNCRLSDLGLAVEMKGGKPITQRAGTNGYMAPEILMEKVSYSYPVDWFAMGCSIYEMVAGRTPFKDYKEKVSKEDLKQRTLQDEVKFQHDNFTEEAKDICRLFLAKKPEQRLGSREKSDDPRKHHFFKTINFPRLEAGLIEPPFVPDPSVVYAKDIAEIDDFSEVRGVEFDDKDKQFFKNFATGAVPIAWQEEIIETGLFEELNDPNRPTGCEEGNSSKSGVCLLL
B8: GRK6 (protein)
chain: MELENIVANTVLLKAREGGGGNRKGKSKKWRQMLQFPHISQCEELRLSLERDYHSLCERQPIGRLLFREFCATRPELSRCVAFLDGVAEYEVTPDDKRKACGRQLTQNFLSHTGPDLIPEVPRQLVTNCTQRLEQGPCKDLFQELTRLTHEYLSVAPFADYLDSIYFNRFLQWKWLERQPVTKNTFRQYRVLGKGGFGEVCACQVRATGKMYACKKLEKKRIKKRKGEAMALNEKQILEKVNSRFVVSLAYAYETKDALCLVLTLMNGGDLKFHIYHMGQAGFPEARAVFYAAEICCGLEDLHRERIVYRDLKPENILLDDHGHIRISDLGLAVHVPEGQTIKGRVGTVGYMAPEVVKNERYTFSPDWWALGCLLYEMIAGQSPFQQRKKKIKREEVERLVKEVPEEYSERFSPQARSLCSQLLCKDPAERLGCRGGSAREVKEHPLFKKLNFKRLGAGMLEPPFKPDPQAIYCKDVLDIEQFSTVKGVELEPTDQDFYQKFATGSVPIPWQNEMVETECFQELNVFGLDGSVPPDLDWKGQPPAPPKKGLLQRLFSRQDCCGNCSDSEEELPTRL
B9: GRK4 (protein)
chain: MELENIVANSLLLKARQGGYGKKSGRSKKWKEILTLPPVSQCSELRHSIEKDYSSLCDKQPIGRRLFRQFCDTKPTLKRHIEFLDAVAEYEVADDEDRSDCGLSILDRFFNDKLAAPLPEIPPDVVTECRLGLKEENPSKKAFEECTRVAHNYLRGEPFEEYQESSYFSQFLQWKWLERQPVTKNTFRHYRVLGKGGFGEVCACQVRATGKMYACKKLQKKRIKKRKGEAMALNEKRILEKVQSRFVVSLAYAYETKDALCLVLTIMNGGDLKFHIYNLGNPGFDEQRAVFYAAELCCGLEDLQRERIVYRDLKPENILLDDRGHIRISDLGLATEIPEGQRVRGRVGTVGYMAPEVVNNEKYTFSPDWWGLGCLIYEMIQGHSPFKKYKEKVKWEEVDQRIKNDTEEYSEKFSEDAKSICRMLLTKNPSKRLGCRGEGAAGVKQHPVFKDINFRRLEANMLEPPFCPDPHAVYCKDVLDIEQFSVVKGIYLDTADEDFYARFATGCVSIPWQNEMIESGCFKDINKSESEEALPLDLDKNIHTPVSRPNRGFFYRLFRRGGCLTMVPSEKEVEPKQC

Biological target: T1, Bovine, dephosphorylated, Myelin Basic …

Row | Protein | MBP Kinase Activity
1 | B1 | Weak
2 | B2 | Strong
3 | B3 | Strong
4 | B4 | Negative
5 | B5 | Negative
6 | B6 | Weak
7 | B7 | Negative
8 | B8 | Negative
9 | B9 | Negative

Reference: patent publication US20090099029
